The values that follow come from PMC5777638 (Nature, 2018).

B2: RNA polymerase III subunit C34 (natural protein, Saccharomyces cerevisiae, UniProt P32910 1-317, looked up)
chain: MSGMIENGLQLSDNAKTLHSQMMSKGIGALFTQQELQKQMGIGSLTDLMSIVQELLDKNLIKLVKQNDELKFQGVLESEAQKKATMSAEEALVYSYIEASGREGIWSKTIKARTNLHQHVVLKCLKSLESQRYVKSVKSVKFPTRKIYMLYSLQPSVDITGGPWFTDGELDIEFINSLLTIVWRFISENTFPNGFKNFENGPKKNVFYAPNVKNYSTTQEILEFITAAQVANVELTPSNIRSLCEVLVYDDKLEKVTHDCYRVTLESILQMNQGEGEPEAGNKALEDEEEFSIFNYFKMFPASKHDKEVVYFDEWTI

Assay [1] addresses B2. Put plainly: cryo-EM structure.
For assay [2], the target named is T1, RNA polymerase III subunit C128 (Saccharomyces cerevisiae, UniProt P22276 1-1149).
T1 sequence (looked up): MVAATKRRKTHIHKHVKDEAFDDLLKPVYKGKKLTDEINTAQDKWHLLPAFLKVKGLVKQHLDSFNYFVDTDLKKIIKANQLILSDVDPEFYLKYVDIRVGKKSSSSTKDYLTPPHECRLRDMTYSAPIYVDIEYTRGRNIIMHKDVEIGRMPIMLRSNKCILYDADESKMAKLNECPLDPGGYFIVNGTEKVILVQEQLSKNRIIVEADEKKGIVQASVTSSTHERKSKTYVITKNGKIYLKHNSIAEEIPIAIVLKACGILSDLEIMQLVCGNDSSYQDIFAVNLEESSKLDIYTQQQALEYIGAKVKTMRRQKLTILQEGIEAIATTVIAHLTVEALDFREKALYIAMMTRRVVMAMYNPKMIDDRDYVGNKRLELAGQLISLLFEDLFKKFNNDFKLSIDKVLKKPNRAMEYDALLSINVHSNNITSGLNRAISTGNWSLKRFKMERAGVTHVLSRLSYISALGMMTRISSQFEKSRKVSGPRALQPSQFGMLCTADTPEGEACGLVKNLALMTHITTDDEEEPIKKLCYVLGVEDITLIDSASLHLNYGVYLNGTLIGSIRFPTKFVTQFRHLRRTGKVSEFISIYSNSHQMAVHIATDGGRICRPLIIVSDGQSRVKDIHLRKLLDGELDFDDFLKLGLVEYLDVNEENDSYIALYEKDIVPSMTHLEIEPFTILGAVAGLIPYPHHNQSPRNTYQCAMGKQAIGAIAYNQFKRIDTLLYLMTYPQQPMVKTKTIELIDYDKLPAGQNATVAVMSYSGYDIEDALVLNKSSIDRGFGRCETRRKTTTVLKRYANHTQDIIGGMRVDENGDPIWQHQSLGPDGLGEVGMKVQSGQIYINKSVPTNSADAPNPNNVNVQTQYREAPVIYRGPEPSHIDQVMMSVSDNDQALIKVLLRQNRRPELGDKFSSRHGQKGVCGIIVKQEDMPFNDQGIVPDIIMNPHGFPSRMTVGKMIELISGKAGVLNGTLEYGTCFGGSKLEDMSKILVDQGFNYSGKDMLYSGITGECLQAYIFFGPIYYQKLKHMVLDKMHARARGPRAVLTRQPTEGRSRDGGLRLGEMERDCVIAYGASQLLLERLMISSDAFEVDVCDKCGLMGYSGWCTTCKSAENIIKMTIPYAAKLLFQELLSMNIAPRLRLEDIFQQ
The experiment in a line: cryo-EM structure.

B1: RNA polymerase III subunit C37 (natural protein, Saccharomyces cerevisiae, UniProt P36121 1-282, looked up)
chain: MSIDNKLFVTEEDEEDRTQDRADVEDESNDIDMIADENGTNSAIANEQEEKSEEVKAEDDTGEEEEDDPVIEEFPLKISGEEESLHVFQYANRPRLVGRKPAEHPFISAARYKPKSHLWEIDIPLDEQAFYNKDKAESEWNGVNVQTLKGVGVENNGQYAAFVKDMQVYLVPIERVAQLKPFFKYIDDANVTRKQEDARRNPNPSSQRAQVVTMSVKSVNDPSQNRLTGSLLAHKVADEEANIELTWAEGTFEQFKDTIVKEAEDKTLVALEKQEDYIDNLV
Turning to B1, in assay [1], the binding result is “binds”.
On to B2, for which, in assay [2], the binding result is “binds”.
